# Columns and labels:
# Assay in all cases: Fc receptor binding, method not stated
# [1] = target: CD32-H131 (FcγRIIa) (human) (UniProt P12318)
# [2] = target: CD32-R131 (FcγRIIa) (human) (UniProt P12318)
# [3] = target: CD16-V158 (FcγRIIIa) (human) (UniProt P08637)
# CD64 (FcγRIa) (human) = CD64 (FcγRIa) (human) (UniProt P12314)
# Chain of UniProt P12314 (P12314 16-288 limits assumed): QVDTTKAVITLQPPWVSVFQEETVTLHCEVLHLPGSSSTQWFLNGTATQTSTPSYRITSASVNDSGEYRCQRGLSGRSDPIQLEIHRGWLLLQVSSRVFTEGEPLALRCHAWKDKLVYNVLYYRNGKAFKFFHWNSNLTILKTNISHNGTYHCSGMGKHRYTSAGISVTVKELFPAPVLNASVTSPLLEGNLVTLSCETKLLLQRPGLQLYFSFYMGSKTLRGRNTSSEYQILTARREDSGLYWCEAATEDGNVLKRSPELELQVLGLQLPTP
# Chain of UniProt P08637 (P08637 17-208 F176V limits assumed): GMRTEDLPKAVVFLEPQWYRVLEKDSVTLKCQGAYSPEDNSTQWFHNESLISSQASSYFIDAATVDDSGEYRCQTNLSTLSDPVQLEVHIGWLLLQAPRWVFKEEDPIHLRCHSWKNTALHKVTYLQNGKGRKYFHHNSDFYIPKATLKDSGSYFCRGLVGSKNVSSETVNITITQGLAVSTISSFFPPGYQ
substance,measurement,setting,value
"IgG1f antibody (fucosylated, otherwise unmodified human IgG1f Fc region)",Kd,[1],530 nM
same,Kd,[2],960 nM
same,Kd,[3],97 nM
same,Kd,CD64 (FcγRIa) (human),0.2 nM

# — US20190382490A1
